This passage reports OD405 results from patent US20220348674A1 (APOLLOMICS, published 2022).

B1: 7H11 rabbit-human chimeric anti-CD40 antibody (antibody, V domains shown)
VH: QSVEESGGRLVTPGTPLTLTCTVSGIDFSKYWMAWVRQAPGEGLEYIGILSTTGSTYYASWAKGRFTISKTSTTVDLKITSLTTEDTATYFCARGNYIGNGYTWDIWGPGTLVTVSS
VL: DPVLTQTPSSASEPVGGTVTIKCQASQSIGSYLAWYQQKPGQPPKLLIYSPSTLASGVSSRFKGSRSGTEFTLTISDLECADAATYYCQSTAVGITFGGGTEVVVK
notes: tested as cell culture supernatant
B2: 1D3 rabbit-human chimeric anti-CD40 antibody (antibody, V domains shown)
VH: QSLEESGGRLVTPGTPLTLTCTASGFSLSNYHMCWVRQAPGKGLEWIGYNSYGGSAYYASWAKGRFTISKTSTTVDLKITRPTTEDTATYFCARAYLDYNGDMGFALWGPGTLVTVSS
VL: EVVMTQTPSSVSAAVGGTVTFKCQASQSISSYLSWYQQKPGQPPKLLIYRASTLESGVPSRFKGSGSGTQFTLTISDLECADAATYYCQTNYYDSGNTYGTFGGGTEVVVK
notes: as for B1
B3: 7C11 rabbit-human chimeric anti-CD40 antibody (antibody, V domains shown)
VH: QSLEESGGRLVTPGGSLTLTCTVSGIDLSTNGMGWVRQGPGKGLEWIGTIRVTAGTDYANWAKGRFTISKTSSTTVDLKMTSLTTEDTATYFCARGHANNDAYVYFNLWGQGTLVTVSS
VL: AFELTQTPASVEAGVGGTVTIKCQASQSIDRYLAWYQQKSGQPPKLLISYTSKLASGVPSRFKGSGSGTEFTLTISDLECADAATYYCQSYFTSDDANSFGGGTEVVVK
notes: as for B1
B4: 8C10 rabbit-human chimeric anti-CD40 antibody (antibody, V domains shown)
VH: QSLAESGGRLVTPGGSLTLTCTVSGIDLSTDGMGWVRQGPGKGLEWIGTIRVTGGTDFATWAKGRFTIAKTSSTTVDLKMTSLTTEDTATYFCARGHANNDAYVYFNLWGQGTLVTVSS
VL: AFELTQTPASVEAGVGGTVTIKCQASQSIDRYLAWYQQKPGQPPKLLMAAAANLASGVPSRFKGSRSGTEFTLTISDLECADGATYYCQSYFTSDDGNTFGGGTEVVVK
notes: as for B1
B5: 7G6 rabbit-human chimeric anti-CD40 antibody (antibody, V domains shown)
VH: QSLEESGGRLVTPGGSLTLTCTVSGIDLSTNGMGWVRQGPGKGLEWIGTIRVTGGTDYATWAKGRFTISKTSSTTVDLKMTSPTTEDTATYFCARGHANNDAYVYFNLWGQGTLVTVSS
VL: AFELTQTPASVEAGVGGTVTIKCQASQSIDRYLAWYQQKPGQPPKLLISYTSTLTSGVPSRFKGSGSGTEFTLTISDLECADAATYYCQSYFTSDDANTFGGGTEVVVK
notes: as for B1
B6: 6C2 rabbit-human chimeric anti-CD40 antibody (antibody, V domains shown)
VH: QSVEESGGRLVTPGTPLTLTCTASGFSLSTYYMIWVRQAPGKGLDYIGIISSNGNAYYATWAKGRFTISKTSTTVDLKMTSPTTEDTATYFCARAASIANSYYFNVWGPGTLVTVSS
VL: AVLTQTPSPVSAAVGGTVSISCQSSQSVRDNNWLSWFQQKPGHPPKLLIYGASNLESGVPSRFSGSGSGTEFTLTISDVQCDDAATYYCQGGFSTYSDNSFGGGTEVVVK
notes: as for B1
B7: 7A6 rabbit-human chimeric anti-CD40 antibody (antibody, V domains shown)
VH: QSVEESGGRLVTPGTPLTLACTVSGIDLSTWTMSWVRQAPGKGLEWIGIINSDSNTYYASWAKGRFTISKASTTVDLKMTSLTTEDTATYFCARGVGGYSSGPDYLDIWGPGTLVTVSS
VL: DIVMTQTPASVEAAVGGTVTIKCQASQSIYRSLAWYQQKPGQPPKLLMYHASDLASGVPSRFKGSGSGTEYTLTISDLECADAATYYCQSYYYSGINTYGNAFGGGTEVVVK
notes: as for B1
B8: 2C10 rabbit-human chimeric anti-CD40 antibody (antibody, V domains shown)
VH: QSLEESGGRLVTPGTPLTLTCTASGFTMNRYRMSWVRQAPGKGLEWIGTINNDAGASYASWVNGRFTISKTSSTTVDLKITGPTTEDTATYFCARAGDNIYVDLYNLWGPGTLVTVSS
VL: DVVMTQTPASVSGAVGGTVTIKCQASENIFSYLAWYQQKPGQPPKLLFYGASNLASGVPSRFSGSRSGTEFTLTISDLECADAATYYCQFTNYGSSDIRSPFGGGTEVVVK
notes: as for B1
B9: 194 rabbit-human chimeric anti-CD40 antibody (antibody, V domains shown)
VH: QSVEESGGRLVTPGTPLTLTCTVSGFSLSSYAMSWVRQAPGKGLEYIGVMNTGGSAHYATWAKGRFTISKTSTTVDLKITSPTTADTATYFCARGYIGSPNLWGPGTLVTVSS
VL: AVLTQTPSPVSAAVGGTVSISCQSSKSVYYNNYLSWFQQKPGQPPKQLIYLASTLASGVPSRFKGSGSGTEFTLTISDVQCADAATYYCAGGYTDSDDAFGGGTEVVVK
notes: as for B1
B10: 6G8 rabbit-human chimeric anti-CD40 antibody (antibody, V domains shown)
VH: QSVEESGGRLVTPGTPLTLTCTASGFSLSTYYMTWVRQAPGKGLEAIGYINTGGSTYYASRAKGRFTISKTSTTVDLKMTSPTTEDTATYFCARADASEHNYNGLNIWGPGTLVTVSS
VL: DIVMTQTPASVSEPVGGTVTIKCQASESISSNLAWYQQKPGQPPKFLIYRASTLASGVPSRFKGSGFGTQFTLTISDLECADAATYYCQSNYGSISSSYGNAFGGGTEVVVK
notes: as for B1
B11: 192 rabbit-human chimeric anti-CD40 antibody (antibody, V domains shown)
VH: QSVEESGGRLVTPGTPLTLTCTVSGFSLSSYAMNWVRQAPGKGLEYTGMIATGGKTFYAGWAEGRFTISKTSTTVDLHIASLTTEDTATYYCARGYVGDIYFGFWGPGTLVTVSS
VL: AVLTQTPSPVSAGVGGTVTISCQSSKSVYYNTHLSWFQQKPGQPPKLLIYRASTLASGVPSRFKGSGSGTQFTLTISDVQCDDAATYYCAGGYANDVDNGFGGGTEVVVK
notes: as for B1
B12: 195 rabbit-human chimeric anti-CD40 antibody (antibody, V domains shown)
VH: QSVEESGGRLVTPGTPLTLTCTVSGFSLSSYAMNWVRQAPGKGLEYIGMIATGGKTFYAGWAEGRFTISKTSTTVDLHIASLTTEDTATYYCARGYVGDIYFGFWGPGTLVTVSS
VL: AVLTQTPSPVSAGVGGTVTISCQSSKSVYYNTHLPWFQQKPGQPPKLLIYRASTLASGVPSRFKGSGSGTQFTLTISDVQCDDAATYYCAGGYANDVDNGFGGGTEVVVK
notes: as for B1
B13: 7D2 rabbit-human chimeric anti-CD40 antibody (antibody, V domains shown)
VH: QSVEESGGRLVTPGTPLTLTCTVSGFSLNNYYMGWVRQAPGKGLEYIGWITSGRIAAYANWAKGRFTISKTSTTVDLKITSPTIGDTATHFCATTTTSDAYFFPRLGLWGQGTLVTVSS
VL: AVLTQTPSPVSAAVEGTVTINCQSSQSVDNNRLSWFQQKPGQPPKLLIYDASTLASGVPPRFKGSGSGTQFTLTISDVQCDDAATYYCAGGYSFPSENAFGGGTEVVVK
notes: as for B1
B14: 6E1 rabbit-human chimeric anti-CD40 antibody (antibody, V domains shown)
VH: QSVEESGGRLVTPGTPLTLTCTVSGFSLSSYAMTWVRQAPGKGLEWLGIIDTIGSTYYASWAKGRFTISKTSTTVDLKITSPTTEDTATYFCVRDYIGSTSGKKLWGRGTLVTVSS
VL: AVLTQTPSSVEAAVGGTVSISCQSSKSVYYKNWLAWYQQKPGQPPKLLIYGASTLASGVPSRFKGSGSGAQFTLTISDVQCDDAATYYCAGGYSSDSDTGFGGGTEVVVK
notes: as for B1
B15: 3B12 rabbit-human chimeric anti-CD40 antibody (antibody, V domains shown)
VH: QSLEESGGRLVTPGTPLTLTCTVSGIDLSSYAMGWVRQAPGKGLEYIGVIASNSGISYYATWAEGRFTISKASTTVDLKITSPTTEDTATYFCVRGYIGDGALWGPGTLVTVSS
VL: AVLTQTPSSVSAAVGGTVTINCQSSKTVYYNNWLAWYQQKPGQPPKLLIYRASTLASGVPSRFKGSGSGTQFTLTISDVQCDDATTYYCAGGFSSDSDTTFGGGTEVVVK
notes: as for B1
B16: 6H9 rabbit-human chimeric anti-CD40 antibody (antibody, V domains shown)
VH: QSLEESGGRLVTPGTPLTLTCTVSGIDLSSYAMGWVRQAPGKGLEYIGVIASNSGISYYATWAEGRFTISKASTTVDLKITSPTTEDTATYFCVRGYIGDGALWGPGTLVTVSS
VL: AVLTQTPSSVSAAVGGTVTINCQSSKTVYYNNWLAWYQQKPGQPPKLLIYRASTLASGVPSRFKGSGSGTQFTLTISDVQCDDATTYYCAGGFSSDSDTTFGGGTEVVVK
notes: as for B1
B17: 2B8 rabbit-human chimeric anti-CD40 antibody (antibody, V domains shown)
VH: QSLEESGGRLVTPGTPLTLTCTVSGIDLSSYAMGWVRQAPGKGLEYIGVIASNSGISYYATWAEGRFTISKASTTVDLKITSPTTEDTATYFCVRGYIGDGALWGPGTLVTVSS
VL: AVLTQTPSSVSAAVGGTVNIGCQSSKSVYYNNWLAWYQQKPGQPPKLLIYRASTLASGVPSRFKGSGSGTQFTLTISDVQCADATTYYCAGGYSSDSDTTFGGGTEVVVK
notes: as for B1
B18: 5F9 rabbit-human chimeric anti-CD40 antibody (antibody, V domains shown)
VH: QSVEESGGRLVTPGTPLTLTCTASGFSLIGYVMGWFRQAPGKGLEYIGWISFGGDPYYASWVKGRFTISKTSTTVDLKMTSLTTEDTATYFCARSTYGDIWGPGTLVTVSS
VL: DIVMTQTPASVEAAVGGTVTIKCQASQSISSRLAWYQLKPGQPPKLLIYSASTLASGVPSRFKGSGSGTEFTLTISDLECADAATYYCQNHGYATSESYTNTFGGGTEVVVK
notes: tested as cell culture supernatant in the ELISA
B19: 2E11 rabbit-human chimeric anti-CD40 antibody (antibody, V domains shown)
VH: QSLEESGGRLVTPGTPLTLTCTVSGIDLSRYAMGWVRQAPGKGLEFIGIITSNSGDTYYATWAKGRFTISKTSTTVDLKITSPTTEDTATYFCVRGYIGAPNLWGPGTLVTVSS
VL: AVLTQTPSPVSAAVGGTVSISCQSSKTVYYNNYLSWFQQKPGQPPKELIYYASTLSSGVPSRFKGSGSGTQFTLTISDVQCDDAATYYCAGGYNSDSDNTFGGGTEVVVK
notes: as for B18
B20: 5D10 rabbit-human chimeric anti-CD40 antibody (antibody, V domains shown)
VH: QSVEESGGRLVTPGTPLTLTCTVSGFSFYDHTMIWVRQAPGKGLEYIGFINIGGRAYYASWAKGRFTISRTSTTVDLEMTSLTTEDTATYFCARGDTHGYSYPEIWGPGTLVTVSS
VL: DIVMTQTPASVEAGVGGTVTIKCQASQTIYSYLSWYQQKPGQPPKLLIYRASTLASGVPSRFRGSGSGTEFTLTISDLECADAAAYYCQNYYDSTSSNAFGKGTEVVVK
notes: as for B1
B21: 8C6 rabbit-human chimeric anti-CD40 antibody (antibody, V domains shown)
VH: QSVEESGGRLVTPGTPLTLTCTASGFTITSYYIIWVRQAPGEGLEYIGIIDTGGSADYASWAKGRFTISRTSTTVDLKMTSLTTEDTATYFCARADVGSVGSIWGPGTLVTVSS
VL: DVAMTQTPSSVSAAVGGTVTIECQASQNIYTNLAWYQQKPGQRPKLLIYYASTLASGVPSRFSGSGSGTEFSLTISDLECADAATYYCQCTYIKWRHVCGFGGGTEVVVK
notes: as for B1

For this test, the target named is T1, purified recombinant human CD40 protein (human, UniProt P25942 21-193).
T1 construct: also called recombinant CD40
T1 sequence (P25942 21-193 limits assumed): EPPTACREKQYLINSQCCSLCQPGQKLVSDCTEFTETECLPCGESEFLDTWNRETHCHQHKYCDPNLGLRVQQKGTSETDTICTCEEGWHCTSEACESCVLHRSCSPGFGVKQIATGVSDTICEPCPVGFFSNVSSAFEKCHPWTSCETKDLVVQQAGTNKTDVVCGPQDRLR
The test is described as follows: ELISA on coated recombinant human CD40; chimeric antibody supernatant. As for the experimental part: ELISA plate was coated with purified recombinant CD40 protein in coating buffer at lug/ml overnight. After washed for 3 times, the plate was blocked with 1% BSA, and then cell culture supernatants containing rabbit-human chimeric CD40 antibodies were added to the plate. For detection of the antibody binding to CD40 protein, goat anti-human Fc polyclonal antibody conjugated to alkaline phosphatase was used.
A general note: An ELISA detects its analyte on a solid surface through an enzyme-linked reagent.
As to B1, the OD405 is 1.46 OD405.
Consider B2, for which the OD405 was 1.51 OD405.
The figure for B3 is 1.8 OD405; for B4 it is 2.09 OD405.
Turning to B5, the OD405 stood at 1.82 OD405.
For B6, the OD405 was determined as 1.96 OD405.
Under B7 stands 1.99 OD405; under B8, 2.14 OD405; under B9, 1.69 OD405.
The figure for B10 is 1.77 OD405; for B11 it is 2 OD405; for B12 it is 1.84 OD405.
For the molecule B13, the OD405 was determined as 1.82 OD405.
Regarding B14, the OD405 was 1.82 OD405.
Regarding B15, the OD405 was 1.57 OD405.
Under B16 stands 1.97 OD405; under B17, 1.64 OD405.
The figure for B18 is 1.83 OD405; for B19 it is 1.79 OD405.
The figure for B20 is 0.98 OD405; for B21 it is 1.97 OD405.
